Patent US20260216242A1 (ALMAC DISCOVERY, published 2026)
Numbering of substitutions follows the chain as printed. Numbers in names are those of the source. Values belong to the binder of their own block, whether it stands above or below them.

Assays:
[1] = biological target: T1, human ALPPL2 (alkaline phosphatase, germ cell type) expressed on the surface of CHO cells (human, UniProt P10696 20-503); assay: cell-based or functional assay
[2] = biological target: T2, human ALPI (intestinal alkaline phosphatase) expressed on the surface of CHO cells (human, UniProt P09923 20-503); assay: cell-based or functional assay
T2 sequence (looked up): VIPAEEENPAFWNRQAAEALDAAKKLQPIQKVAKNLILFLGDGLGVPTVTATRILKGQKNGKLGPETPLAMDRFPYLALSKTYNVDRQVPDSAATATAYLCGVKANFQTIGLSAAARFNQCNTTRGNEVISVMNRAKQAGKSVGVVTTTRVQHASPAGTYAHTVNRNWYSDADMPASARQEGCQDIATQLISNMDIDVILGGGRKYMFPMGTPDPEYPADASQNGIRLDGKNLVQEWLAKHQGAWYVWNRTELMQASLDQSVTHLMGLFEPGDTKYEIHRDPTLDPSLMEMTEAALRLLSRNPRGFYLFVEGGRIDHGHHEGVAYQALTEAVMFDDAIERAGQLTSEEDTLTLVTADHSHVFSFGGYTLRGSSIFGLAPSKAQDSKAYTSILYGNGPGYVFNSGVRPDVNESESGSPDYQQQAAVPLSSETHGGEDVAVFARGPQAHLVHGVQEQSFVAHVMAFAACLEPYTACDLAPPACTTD

[3] = biological target: T3, human ALPL (tissue non-specific alkaline phosphatase) expressed on the surface of CHO cells (human, UniProt P05186 18-501); assay: cell-based or functional assay
T3 sequence (looked up): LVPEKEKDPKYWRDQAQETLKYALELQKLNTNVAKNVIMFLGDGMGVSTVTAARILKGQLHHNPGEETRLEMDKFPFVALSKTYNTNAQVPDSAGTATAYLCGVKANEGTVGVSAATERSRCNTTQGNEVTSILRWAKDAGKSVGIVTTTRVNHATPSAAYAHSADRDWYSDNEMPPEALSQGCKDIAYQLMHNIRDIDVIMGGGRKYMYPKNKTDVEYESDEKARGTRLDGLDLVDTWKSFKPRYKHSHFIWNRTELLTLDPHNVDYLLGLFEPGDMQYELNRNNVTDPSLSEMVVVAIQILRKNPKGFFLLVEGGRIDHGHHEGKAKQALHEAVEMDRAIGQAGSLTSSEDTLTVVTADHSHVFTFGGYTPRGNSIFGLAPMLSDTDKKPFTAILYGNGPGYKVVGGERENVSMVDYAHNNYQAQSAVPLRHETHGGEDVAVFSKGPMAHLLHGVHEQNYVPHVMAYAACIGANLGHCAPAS

[4] = biological target: T3, human ALPL (tissue non-specific …); assay: flow cytometry, CHO-ALPL cells
[5] = biological target: T2, human ALPI (intestinal alkaline …); assay: flow cytometry on CHO-ALPI cells
[6] = biological target: T4, human ALPP (alkaline phosphatase, placental type) expressed on the surface of CHO cells (human, UniProt P05187 23-506); assay: flow cytometry on CHO-ALPP cells, apparent KD (KDapp)
T4 construct: also called CHO-ALPP; hALPP
Experimental: (§1) Biparatopic VHH-hFc drug conjugates were assessed for human ALPP, ALPPL2, ALPI and ALPL cell-surface binding by flow cytometry. Binders were screened on CHO cells stably expressing human ALPP, ALPPL2, ALPI or ALPL.
(§2) Cell surface binding of test agents to hALPP isoforms was characterized in four CHO-ALPP isoform transfectant cell lines (CHO-ALPP, CHO-ALPPL2, CHO-ALPI and CHO-ALPL) and the resulting KDapp values determined. Adherent cells were detached from tissue culture flasks by incubating with 0.1% EDTA/PBS solution at 37° C. for […] or until cells detached easily. Cells were re-suspended in ice-cold PBS/2% FCS in 15 ml tubes and centrifuged at 1700 rpm for 5 mins at 4° C. Supernatant was removed and the cell pellet re-suspended in PBS/2% FCS. […] Cells were incubated with 100 μl of test agents at a range of concentrations, plus controls for 1 hr on ice. The sample plate was centrifuged at 1700 rpm for 5 mins at 4° C. The supernatant was removed, and a wash performed by re-suspending the cell pellets in 0.25 mL of ice-cold PBS/2% FCS using a multichannel pipette. Samples were again centrifuged at 1700 rpm for 5 min at 4° C. Supernatant was removed and two further washes performed as described. After the final wash and centrifugation step, excess liquid was removed by blotting the plate on tissue paper. Binding of VHH-hFc agents was determined by adding 100 μl of Fitc-anti-human Ab (ThermoFisher) and incubating for 30 mins on ice in the dark. Wash steps were performed as described previously. All cell pellets were finally re-suspended in 0.28 ml of ice-cold PBS/2% FCS and left on ice in the dark prior to analysis on a Merck-Millipore Guava EasyCyte HT or Thermo Fisher Attune N×T flow cytometer.

[7] = biological target: T1, human ALPPL2 (alkaline phosphatase, …); assay: flow cytometry on CHO-ALPPL2 cells, apparent KD (KDapp)
Experimental: as §1, §2

[8] = biological target: T5, human ALPL on CHO cells (human, UniProt P05186 18-501); assay: flow cytometry, CHO cells stably expressing human ALPL; PDC detected with FITC anti-human Ab
T5 construct: whole, on cells; also called CHO-ALPL
T5 sequence (looked up): T3 sequence (looked up)
Experimental: as §1, §2

T1 sequence (P10696 20-503): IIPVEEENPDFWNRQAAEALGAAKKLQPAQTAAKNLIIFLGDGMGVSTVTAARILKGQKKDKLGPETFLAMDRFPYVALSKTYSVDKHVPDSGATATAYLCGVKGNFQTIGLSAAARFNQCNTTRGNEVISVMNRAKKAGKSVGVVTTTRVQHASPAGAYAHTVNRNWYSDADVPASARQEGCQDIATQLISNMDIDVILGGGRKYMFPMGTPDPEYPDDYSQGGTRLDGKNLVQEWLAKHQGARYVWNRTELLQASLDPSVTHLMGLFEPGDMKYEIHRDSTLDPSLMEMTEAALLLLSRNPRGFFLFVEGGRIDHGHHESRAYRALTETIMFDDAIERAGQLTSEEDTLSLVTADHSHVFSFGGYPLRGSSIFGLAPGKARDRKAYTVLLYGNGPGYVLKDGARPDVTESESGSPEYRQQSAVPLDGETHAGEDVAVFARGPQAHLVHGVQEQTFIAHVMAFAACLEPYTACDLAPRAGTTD
T4 sequence (P05187 23-506 limits assumed): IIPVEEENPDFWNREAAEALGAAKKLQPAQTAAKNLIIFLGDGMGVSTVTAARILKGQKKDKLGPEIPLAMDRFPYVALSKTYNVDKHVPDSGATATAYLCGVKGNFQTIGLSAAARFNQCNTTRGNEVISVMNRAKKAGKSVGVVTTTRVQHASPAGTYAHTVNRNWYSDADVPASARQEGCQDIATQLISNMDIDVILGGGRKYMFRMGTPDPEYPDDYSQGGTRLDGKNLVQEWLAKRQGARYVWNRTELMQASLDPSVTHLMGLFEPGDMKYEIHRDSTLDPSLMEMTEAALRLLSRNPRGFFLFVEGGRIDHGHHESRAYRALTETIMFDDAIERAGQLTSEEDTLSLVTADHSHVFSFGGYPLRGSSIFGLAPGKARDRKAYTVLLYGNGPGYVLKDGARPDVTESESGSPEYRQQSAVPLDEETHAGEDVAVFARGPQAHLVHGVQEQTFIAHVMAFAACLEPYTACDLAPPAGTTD

B1: A06 E06-hFc (S239/442C T366Y/Y407T), [G4S]3 linker, MC-vc-PAB-MMAE conjugate, #639 (Fc fusion, DAR 4)
chain 1: QVHLVESGGGLVQAGGSLRLSCAASGRTFLSMGWFRQAPGKEREFVAAISWTGGSTGYADSVKGRFTISRESDKETMYLQMNSLKPEDTAVYYCAARGDVYYGGDDATRYKYWGQGTQVTVSSGGGGSGGGGSGGGGSEPKSSDKTHTCPPCPAPELLGGPCVFLFPPKPKDTLMISRTPEVTCVVVDVSHEDPEVKFNWYVDGVEVHNAKTKPREEQYNSTYRVVSVLTVLHQDWLNGKEYKCKVSNKALPAPIEKTISKAKGQPREPQVYTLPPSRDELTKNQVSLYCLVKGFYPSDIAVEWESNGQPENNYKTTPPVLDSDGSFFLYSKLTVDKSRWQQGNVFSCSVMHEALHNHYTQKSLCLSPGK
chain 2: QVHLVESGGGLVQAGGSLRLSCAASRRSFSEYAMGWFRQAPGKEREFVAAIGWSGVIEYADSVKGRFTISRDNAKDTVYLQMNSLKPEDTAVYYCAAGLGIRVVSQTPAYWGQGTQVTVSSGGGGSGGGGSGGGGSEPKSSDKTHTCPPCPAPELLGGPCVFLFPPKPKDTLMISRTPEVTCVVVDVSHEDPEVKFNWYVDGVEVHNAKTKPREEQYNSTYRVVSVLTVLHQDWLNGKEYKCKVSNKALPAPIEKTISKAKGQPREPQVYTLPPSRDELTKNQVSLTCLVKGFYPSDIAVEWESNGQPENNYKTTPPVLDSDGSFFLTSKLTVDKSRWQQGNVFSCSVMHEALHNHYTQKSLCLSPGK
modifications: MC-vc-PAB-MMAE on Cys of S239C and S442C (EU numbering)
notes: Biparatopic knob-into-hole VHH-hFc heterodimer, DAR 4; The assignment of T366Y to the first named VHH and Y407T to the second follows the order of the name; No paragraph spells out this pair; also called A06-E06 hFc-vcPAB-MMAE; A06-E06hFc-vc-MMAE
IC50 at 96 h, cell-killing of CHO-ALPPL2 cells [1]: 8.6 nM
IC50 at 96 h, cell-killing of CHO-ALPI cells [2]: > 1000 nM
IC50 at 96 h, cell-killing of CHO-ALPL cells [3]: > 1000 nM
binding result [4]: no binding (tested: 350 nM (highest concentration))
MFI on CHO-ALPI cells at 350 nM as percent of MFI on CHO-ALPP cells (KDapp not-determinable) [5]: ≤ 1%
Kd [6]: 8.5 nM
Kd [7]: 4.2 nM

B2: A06-E10 hFc-vcPAB-MMAE [G4S]3 (Fc fusion, DAR 4)
chain 1: B1 chain 1
chain 2: QVQLVESGGGLVQAGGSLRLSCAVSGRALSDYNIGWFRQAPGKEREFVARKTWDGSSTRYDDSVKGRFTVSIEDAKNTAYLQMSSLKTEDTAVYYCAAGRYSRARGWEYDYWGQGTQVTVSSGGGGSGGGGSGGGGSEPKSSDKTHTCPPCPAPELLGGPCVFLFPPKPKDTLMISRTPEVTCVVVDVSHEDPEVKFNWYVDGVEVHNAKTKPREEQYNSTYRVVSVLTVLHQDWLNGKEYKCKVSNKALPAPIEKTISKAKGQPREPQVYTLPPSRDELTKNQVSLTCLVKGFYPSDIAVEWESNGQPENNYKTTPPVLDSDGSFFLTSKLTVDKSRWQQGNVFSCSVMHEALHNHYTQKSLCLSPGK
modifications: MC-vc-PAB-MMAE on Cys 239 and Cys 442 (EU numbering)
notes: Biparatopic drug conjugate, DAR 4
binding result [8]: no binding (tested: 350 nM)

B3: A06-E06 hFc-vcPAB-MMAE [G4S]3 (Fc fusion, DAR 4)
chain 1: B1 chain 1
chain 2: B1 chain 2
modifications: MC-vc-PAB-MMAE on Cys 239 and Cys 442 (EU numbering)
notes: Biparatopic drug conjugate, DAR 4; also called #639
binding result [8]: no binding (tested: 350 nM)

B6: A06-E10-hFc-vcPAB-MMAE [G4S]1 (Fc fusion, DAR 4)
chain 1: QVHLVESGGGLVQAGGSLRLSCAASGRTFLSMGWFRQAPGKEREFVAAISWTGGSTGYADSVKGRFTISRESDKETMYLQMNSLKPEDTAVYYCAARGDVYYGGDDATRYKYWGQGTQVTVSSGGGGSEPKSSDKTHTCPPCPAPELLGGPCVFLFPPKPKDTLMISRTPEVTCVVVDVSHEDPEVKFNWYVDGVEVHNAKTKPREEQYNSTYRVVSVLTVLHQDWLNGKEYKCKVSNKALPAPIEKTISKAKGQPREPQVYTLPPSRDELTKNQVSLYCLVKGFYPSDIAVEWESNGQPENNYKTTPPVLDSDGSFFLYSKLTVDKSRWQQGNVFSCSVMHEALHNHYTQKSLCLSPGK
chain 2: QVQLVESGGGLVQAGGSLRLSCAVSGRALSDYNIGWFRQAPGKEREFVARKTWDGSSTRYDDSVKGRFTVSIEDAKNTAYLQMSSLKTEDTAVYYCAAGRYSRARGWEYDYWGQGTQVTVSSGGGGSEPKSSDKTHTCPPCPAPELLGGPCVFLFPPKPKDTLMISRTPEVTCVVVDVSHEDPEVKFNWYVDGVEVHNAKTKPREEQYNSTYRVVSVLTVLHQDWLNGKEYKCKVSNKALPAPIEKTISKAKGQPREPQVYTLPPSRDELTKNQVSLTCLVKGFYPSDIAVEWESNGQPENNYKTTPPVLDSDGSFFLTSKLTVDKSRWQQGNVFSCSVMHEALHNHYTQKSLCLSPGK
modifications: MC-vc-PAB-MMAE on Cys 239 and Cys 442 (EU numbering)
notes: Biparatopic drug conjugate, DAR 4; also called #711
binding result [8]: no binding (tested: 350 nM)

More lines, now with the values ahead:

binding result [8]: no binding (tested: 350 nM)
B4: A06-F05 hFc-vcPAB-MMAE [G4S]3 (Fc fusion, DAR 4)
chain 1: B1 chain 1
chain 2: B2 chain 2 with V24A, L29F, S30G, K51R, E73D, D74N, S84N, A104V
modifications: MC-vc-PAB-MMAE on Cys 239 and Cys 442 (EU numbering)
notes: as for B2

binding result [8]: no binding (tested: 350 nM)
B5: A06-E06-hFc-vcPAB-MMAE [G4S]1 (Fc fusion, DAR 4)
chain 1: B6 chain 1
chain 2: QVHLVESGGGLVQAGGSLRLSCAASRRSFSEYAMGWFRQAPGKEREFVAAIGWSGVIEYADSVKGRFTISRDNAKDTVYLQMNSLKPEDTAVYYCAAGLGIRVVSQTPAYWGQGTQVTVSSGGGGSEPKSSDKTHTCPPCPAPELLGGPCVFLFPPKPKDTLMISRTPEVTCVVVDVSHEDPEVKFNWYVDGVEVHNAKTKPREEQYNSTYRVVSVLTVLHQDWLNGKEYKCKVSNKALPAPIEKTISKAKGQPREPQVYTLPPSRDELTKNQVSLTCLVKGFYPSDIAVEWESNGQPENNYKTTPPVLDSDGSFFLTSKLTVDKSRWQQGNVFSCSVMHEALHNHYTQKSLCLSPGK
modifications: MC-vc-PAB-MMAE on Cys 239 and Cys 442 (EU numbering)
notes: Biparatopic drug conjugate, DAR 4; also called #710

binding result [8]: no binding (tested: 350 nM)
B7: A06-F05-hFc-vcPAB-MMAE [G4S]1 (Fc fusion, DAR 4)
chain 1: B6 chain 1
chain 2: B6 chain 2 with V24A, L29F, S30G, K51R, E73D, D74N, S84N, A104V
modifications: MC-vc-PAB-MMAE on Cys 239 and Cys 442 (EU numbering)
notes: as for B2
